Data reported in patent US20120316071A1 (published 2012).
Positions count from the first letter of the chain named. Names and notes keep the numbering of the source.

Experiments:
[1] = molecular target: T1, Recombinant Human DLL4 (delta-like protein 4) (human, UniProt Q9NR61 27-529); experiment: ECL (MSD) 96-well plate assay; plate coated with 30 µg/mL DLL4; Fab 0.02 µM
T1 construct: Bought recombinant protein (R&D Systems Cat#1506-D4/CF); also called rHuman DLL4; Delta-like 4

[2] = molecular target: T1, Recombinant Human DLL4 (delta-like …); experiment: ECL (MSD) 96-well plate assay; plate coated with 15 µg/mL DLL4; Fab 0.004 µM
[3] = molecular target: T2, rHuman CD44/Fc Chimera, CF (R&D Systems Cat#3660-CD) (human, UniProt P16070 21-220); experiment: ECL Multispot (MSD), antigen spotted on plate, Fab 0.1 uM;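 note: ratio compares each antigen's electrochemiluminescence to the blank within the same well, with a ratio of at least 4 counted as a binding Fab hit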
T2 construct: Bought recombinant Fc chimera; not shown: Fc of the bought R&D Systems chimera

[4] = molecular target: T3, rHuman IGF-1 sR, CF (R&D Systems Cat#391-GR) (human, UniProt P08069 31-932); experiment: as above
T3 construct: Bought recombinant soluble receptor; also called insulin-like growth factor-1 soluble receptor

[5] = molecular target: T4, rHuman P-Cadherin/Fc Chimera, CF (R&D Systems Cat#861-PC) (human, UniProt P22223 108-654); experiment: as above
T4 construct: Bought recombinant Fc chimera; not shown: Fc of the bought R&D Systems chimera

[6] = molecular target: T5, rHuman Erythropoietin R/Fc Chimera, CF (R&D Systems Cat#963-ER) (human, UniProt P19235 25-250); experiment: as above
T5 construct: Bought recombinant Fc chimera; also called EPO R; EPO R/Fc; not shown: Fc of the bought R&D Systems chimera
T5 sequence (looked up): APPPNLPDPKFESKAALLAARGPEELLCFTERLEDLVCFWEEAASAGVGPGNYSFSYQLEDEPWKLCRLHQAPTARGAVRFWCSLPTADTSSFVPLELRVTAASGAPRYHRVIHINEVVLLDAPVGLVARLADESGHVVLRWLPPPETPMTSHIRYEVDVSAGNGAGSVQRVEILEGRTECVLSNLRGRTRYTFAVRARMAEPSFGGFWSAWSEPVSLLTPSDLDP

[7] = molecular target: T6, Recombinant Human DLL4 (R&D Systems Cat#1506-D4/CF) (human, UniProt Q9NR61 27-524); experiment: as above
T6 construct: Bought recombinant protein; also called delta-like protein 4; rHuman DLL4

[8] = molecular target: T7, rHuman ErbB2/Fc Chimera, CF (R&D Systems Cat#1129-ER) (human, UniProt P04626 23-652); experiment: as above
T7 construct: Bought recombinant Fc chimera; not shown: Fc of the bought R&D Systems chimera

[9] = molecular target: T8, rHuman EGF R/Fc Chimera, CF (R&D Systems Cat#344-ER) (human, UniProt P00533 25-645); experiment: as above
T8 construct: Bought recombinant Fc chimera; not shown: Fc of the bought R&D Systems chimera

[10] = molecular target: T9, rHuman HGF R/c-MET/Fc Chimera, CF (R&D Systems Cat#358-MT/CF) (human, UniProt P08581 25-932); experiment: as above
T9 construct: Bought recombinant Fc chimera; also called HGF R/Fc; not shown: Fc of the bought R&D Systems chimera
T9 sequence (P08581 25-932, change not shown): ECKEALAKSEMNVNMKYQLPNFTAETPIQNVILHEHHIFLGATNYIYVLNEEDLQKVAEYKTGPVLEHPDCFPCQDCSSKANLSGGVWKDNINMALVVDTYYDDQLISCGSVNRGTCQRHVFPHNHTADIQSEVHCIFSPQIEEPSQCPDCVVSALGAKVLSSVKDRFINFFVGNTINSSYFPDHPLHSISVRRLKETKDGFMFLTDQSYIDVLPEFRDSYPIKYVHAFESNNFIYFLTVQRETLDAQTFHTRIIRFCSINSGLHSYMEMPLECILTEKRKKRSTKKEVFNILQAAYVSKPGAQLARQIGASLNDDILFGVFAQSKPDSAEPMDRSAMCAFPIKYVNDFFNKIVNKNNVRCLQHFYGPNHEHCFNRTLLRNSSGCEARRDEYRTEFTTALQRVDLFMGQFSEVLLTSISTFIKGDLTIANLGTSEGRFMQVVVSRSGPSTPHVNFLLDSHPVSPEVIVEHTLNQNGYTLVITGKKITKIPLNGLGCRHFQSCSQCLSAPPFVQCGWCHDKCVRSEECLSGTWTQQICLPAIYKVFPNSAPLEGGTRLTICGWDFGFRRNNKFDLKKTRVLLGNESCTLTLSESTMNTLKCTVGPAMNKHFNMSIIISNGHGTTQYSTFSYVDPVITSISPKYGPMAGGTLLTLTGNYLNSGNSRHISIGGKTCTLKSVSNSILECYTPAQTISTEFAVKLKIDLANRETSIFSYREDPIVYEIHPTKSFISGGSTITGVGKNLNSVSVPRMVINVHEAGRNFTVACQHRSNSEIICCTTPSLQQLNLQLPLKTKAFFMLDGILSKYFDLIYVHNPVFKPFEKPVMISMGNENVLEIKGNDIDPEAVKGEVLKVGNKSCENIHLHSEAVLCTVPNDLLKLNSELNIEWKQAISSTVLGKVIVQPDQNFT

[11] = molecular target: T10, rHuman Notch-1/Fc Chimera, CF (R&D Systems Cat#3647-TK) (human, UniProt P46531 19-526); experiment: as above
T10 construct: Bought recombinant Fc chimera; not shown: Fc of the bought R&D Systems chimera

[12] = molecular target: T3, rHuman IGF-1 sR, CF (R&D Systems …); experiment: ECL Multispot (MSD), antigen spotted on plate, Fab 0.01 uM;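 note: electrochemiluminescence of each antigen spot divided by the blank of the same well, with a value of 4 or above scoring the Fab as a binding hit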
[13] = molecular target: T6, Recombinant Human DLL4 (R&D Systems …); experiment: as above
[14] = molecular target: T8, rHuman EGF R/Fc Chimera, CF (R&D …); experiment: as above
[15] = molecular target: T9, rHuman HGF R/c-MET/Fc Chimera, CF (R&D …); experiment: as above
[16] = molecular target: T1, Recombinant Human DLL4 (delta-like …); experiment: ECL (MSD) multispot assay; Fab 0.1 µM
[17] = molecular target: T1, Recombinant Human DLL4 (delta-like …); experiment: ECL (MSD) multispot assay; Fab 0.01 µM
[18] = molecular target: T11, Recombinant Human DLL4 (delta-like protein 4) (human, UniProt Q9NR61 27-524); experiment: ELISA, Fab on plate-coated DLL4
T11 construct: also called rHuman DLL4; Delta-like 4

[19] = molecular target: T11, Recombinant Human DLL4 (delta-like …); experiment: ECL (MSD) binding assay, Fab on immobilized DLL4

B1: Fab VH1-46_IGHD6-6*01_IGHJ1*01 S104C & L6_IGKJ1*01 (Fab, V domains shown)
VH: QVQLVQSGAEVKKPGASVKVSCKASGYTFTSYYMHWVRQAPGQGLEWMGIINPSGGSTSYAQKFQGRVTMTRDTSTSTVYMELSSLRSEDTAVYYCAREEYSSCSAEYFQHWGQGTLVTVSS
VL: not shown
notes: Fab; The VH was cloned into Plasmid A (CH1, His6 and Flag tags) and the kappa VL into Plasmid C (kappa CL); expressed in E. coli
With B1 the Signal/Noise [1] was 9.9 and the Signal/Noise [2] was 8.4.

B2: Fab VH1-46_IGHD6-6*01_IGHJ1*01 & L6_IGKJ1*01 (Fab, V domains shown)
VH: B1 VH with C104S
VL: not shown
notes: Germline 'Hit' Fab made in E. coli; The heavy chain variable region was cloned into Plasmid A (CH1, His6 and Flag tags) and the kappa light chain variable region into Plasmid C (kappa CL); also called Parent; parental
For B2, the ECL signal/noise ratio [3] was 1.8, the ECL signal/noise ratio [4] was 1.6 and the ECL signal/noise ratio [5] was 1.6. It also gave an ECL signal/noise ratio [6] of 1.2, an ECL signal/noise ratio [7] of 40.9 and an ECL signal/noise ratio [8] of 1.2. For the same binder, the ECL signal/noise ratio [9] was 1.2, the ECL signal/noise ratio [10] was 1.3 and the ECL signal/noise ratio [11] was 1.7.

B3: Fab VH1-46_IGHD6-6*01_IGHJ1*01 S104F & L6_IGKJ1*01 (Fab, V domains shown)
VH: B1 VH with C104F
VL: not shown
notes: Fab made in E. coli; The heavy chain variable region was cloned into Plasmid A (CH1, His6 and Flag tags) and the kappa light chain variable region into Plasmid C (kappa CL)
With B3 the ECL signal/noise ratio [4] was 1.7, the ECL signal/noise ratio [7] was 195 and the ECL signal/noise ratio [9] was 2. For the same binder, the ECL signal/noise ratio [10] was 1.6, the ECL signal/noise ratio [12] was 0.6 and the ECL signal/noise ratio [13] was 15.3. The ECL signal/noise ratio [14] was 0.8 and the ECL signal/noise ratio [15] was 0.6.

B4: Fab VH1-46_IGHD6-6*01_IGHJ1*01 S104R & L6_IGKJ1*01 (Fab, V domains shown)
VH: B1 VH with C104R
VL: not shown
notes: as for B1
B4 showed a Signal/Noise [1] of 23.4 and a Signal/Noise [2] of 28.6.

B5: Fab VH1-46_IGHD6-6*01_IGHJ1*01 S104F & L6_IGKJ1*01 (Fab, V domains shown)
VH: B1 VH with C104F
VL: not shown
notes: as for B1
For B5, the “ECL signal” value [16] was 27100, the Signal/Noise [16] was 195 and the “ECL signal” value [17] was 4280. It also gave a Signal/Noise [17] of 15.3, a Signal/Noise [1] of 76.5 and a Signal/Noise [2] of 134.

B6: Fab VH1-46_IGHD6-6*01_IGHJ1*01 S104H & L6_IGKJ1*01 (Fab, V domains shown)
VH: B1 VH with C104H
VL: not shown
notes: as for B1
B6 was tested, and the “ECL signal” value [16] was 20100, the Signal/Noise [16] was 88.3 and the “ECL signal” value [17] was 4160. For the same binder, the Signal/Noise [17] was 27, the Signal/Noise [1] was 24.9 and the Signal/Noise [2] was 79.2.

B7: Fab VH5-51_IGHD5-18*01>3_IGHJ4*01 G100K/G104T S28R & V3-4_IGLJ1*01 (Fab, V domains shown)
VH: EVQLVQSGAEVKKPGESLKISCKGSGYRFTSYWIGWVRQMPGKGLEWMGIIYPGDSDTRYSPSFQGQVTISADKSISTAYLQWSSLKASDTAMYYCARRKYSYTYDYFDYWGQGTLVTVSS
VL: QTVVTQEPSFSVSPGGTVTLTCGLSSGSVSTSYYPSWYQQTPGQAPRTLIYSTNTRSSGVPDRFSGSILGNKAALTITGAQADDESDYYCVLYMGSGISYVFGTGTKVTVL
notes: Fab from E. coli: VH-CH1 from Plasmid A with His6 and Flag tags, VL with lambda CL from Plasmid E; also called KT S28R
In the case of B7, the “ELISA (Signal-Noise)” value [18] is reported as 0.29 and the “ECL signal” value [19] is reported as 51400.
